Data published in patent US20230406950A1 (LYVGEN BIOPHARMA, published 2023).
Where two headings read alike, the source gives them in different places. One block for each binder: values may come before it.

What was measured:
[1] = target: T1, human CD137 expressed on cells (human, UniProt Q07011 24-255); assay: FACS on CHO cells expressing human CD137 (MFI)
T1 construct: whole, on cells; also called 4-1BB; TNFRSF9
Experimental: (§1) Anti-OX40/CD137 bi-specific antibodies were analyzed by FACS for their binding properties to human OX40 and/or human CD137 expressed on CHO cells. Briefly, cultured cells were harvested, counted and cell viability was evaluated using the Trypan Blue exclusion method. Viable cells were then adjusted to 2×10⁶ cells per mL in PBS containing 2% BSA. 100 μL of this cell suspension were further aliquoted per well into a V-bottom 96-well plate. […] After incubation for 2 hours at 4° C., cells were centrifuged (3 min, 1000×g), washed with 250 μL/well BSA-containing FACS Stain Buffer, resuspended and incubated for an additional 1 hour at 4° C. with 100 μL/well fluorochrome-conjugated anti-IgG antibody for detection of the bisepecific antibody. Cells were then washed with 250 μL/well BSA-containing FACS Stain Buffer, resuspended in 100 μL/well FACS Stain Buffer, acquired and analyzed using a FACS machine. Binding of the bispecific antibodies to human OX40 or human CD137 expressing CHO cells were evaluated and the mean fluorescence intensity is plotted in histograms or dot plots.

[2] = target: T2, human OX40 expressed on CHO cells (human, UniProt P43489 29-277); assay: FACS on CHO cells expressing human OX40 (MFI)
T2 construct: whole, on cells
T2 sequence (looked up): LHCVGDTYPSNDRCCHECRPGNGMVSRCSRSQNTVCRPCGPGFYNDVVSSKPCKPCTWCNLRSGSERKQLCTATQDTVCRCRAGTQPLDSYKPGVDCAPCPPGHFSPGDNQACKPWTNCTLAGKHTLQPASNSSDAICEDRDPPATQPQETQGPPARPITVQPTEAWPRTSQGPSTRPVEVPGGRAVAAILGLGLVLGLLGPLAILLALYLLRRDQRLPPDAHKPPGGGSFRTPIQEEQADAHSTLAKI
Experimental: as §1

[3] = target: T1, human CD137 expressed on cells; assay: FACS on CHO cells expressing human CD137 (MFI); remark: listed apart in the source
Experimental: as §1

T1 sequence (Q07011 24-255): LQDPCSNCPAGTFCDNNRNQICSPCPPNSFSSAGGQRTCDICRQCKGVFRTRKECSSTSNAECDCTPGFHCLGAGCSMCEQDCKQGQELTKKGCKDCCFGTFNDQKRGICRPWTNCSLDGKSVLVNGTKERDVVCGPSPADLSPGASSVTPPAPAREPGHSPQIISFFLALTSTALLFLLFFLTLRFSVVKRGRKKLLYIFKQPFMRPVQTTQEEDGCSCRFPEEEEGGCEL

EC50 (read off the curve) [2]: ~400 ng/mL
EC50 (read off the curve) [3]: ~200 ng/mL
B3: Ly766 (bispecific antibody, human IgG1, kappa)
heavy: EVQLVQSGAEVKKPGASVKVSCKASGYTFTDSYMSWVRQAPGQGLEWIGDMYPDNGDSSYNQKFRERVTITRDTSTSTAYLELSSLRSEDTAVYYCVLAPRWYFSVWGQGTLVTVSSASTKGPSVFPLAPSSKSTSGGTAALGCLVKDYFPEPVTVSWNSGALTSGVHTFPAVLQSSGLYSLSSVVTVPSSSLGTQTYICNVNHKPSNTKVDKKVEPKSCDKTHTCPPCPAPELLGPSVFLFPPKPKDTLMISRTPEVTCVVVDVSHEDPEVKFNWYVDGVEVHNAKTKPREEQYNSTYRVVSVLTVLHQDWLNGKEYKCKVSNKALPAPIEKTISKAKGQPREPQVYTLPPSREEMTKNQVSLTCLVKGFYPSDIAVEWESNGQPENNYKTTPPVLDSDGSFFLYSKLTVDKSRWQQGNVFSCSVMHEALHNHYTQKSLSLSPGGGGGSGGGGSGGGGSGGGGSDIQMTQSPSSLSASVGDRVTITCRASQDIRSNLNWYQQKPGGAVKLLIYYTSRLHSGVPSRFSGSGSGTDYTLTISSLQPEDFATYFCQQSEKLPRTFGGGTKVEIRGGGGSGGGGSGGGGSGGGGSQVQLVQSGAEVKKPGASVKVSCKASGYTFAGFEMHWVRQAPGQGLEWMGAIDPKTGGTDYNQKFKDRVTMTRDTSISTAYMELSRLRSDDTAVYYCARDLGYFDVWGQGTLVTVSS
light: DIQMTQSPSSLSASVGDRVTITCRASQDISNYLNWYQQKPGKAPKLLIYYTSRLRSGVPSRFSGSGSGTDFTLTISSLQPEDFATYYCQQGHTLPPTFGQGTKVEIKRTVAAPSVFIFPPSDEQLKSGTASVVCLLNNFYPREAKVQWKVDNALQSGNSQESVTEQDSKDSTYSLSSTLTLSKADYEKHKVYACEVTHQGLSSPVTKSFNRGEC
notes: Anti-OX40/CD137: Ly598-derived heavy chain fused to Ly1630 scFv (VL-VH); Ly598 light chain

binding result [2]: binds
EC50 (read off the curve) [3]: ~300 ng/mL
B4: Ly768 (bispecific antibody, human IgG1, kappa)
heavy: EVQLVQSGAEVKKPGASVKVSCKASGYTFTDSYMSWVRQAPGQGLEWIGDMYPDNGDSSYNQKFRERVTITRDTSTSTAYLELSSLRSEDTAVYYCVLAPRWYFSVWGQGTLVTVSSASTKGPSVFPLAPSSKSTSGGTAALGCLVKDYFPEPVTVSWNSGALTSGVHTFPAVLQSSGLYSLSSVVTVPSSSLGTQTYICNVNHKPSNTKVDKKVEPKSCDKTHTCPPCPAPELLGPSVFLFPPKPKDTLMISRTPEVTCVVVDVSHEDPEVKFNWYVDGVEVHNAKTKPREEQYNSTYRVVSVLTVLHQDWLNGKEYKCKVSNKALPAPIEKTISKAKGQPREPQVYTLPPSREEMTKNQVSLTCLVKGFYPSDIAVEWESNGQPENNYKTTPPVLDSDGSFFLYSKLTVDKSRWQQGNVFSCSVMHEALHNHYTQKSLSLSPGK
light: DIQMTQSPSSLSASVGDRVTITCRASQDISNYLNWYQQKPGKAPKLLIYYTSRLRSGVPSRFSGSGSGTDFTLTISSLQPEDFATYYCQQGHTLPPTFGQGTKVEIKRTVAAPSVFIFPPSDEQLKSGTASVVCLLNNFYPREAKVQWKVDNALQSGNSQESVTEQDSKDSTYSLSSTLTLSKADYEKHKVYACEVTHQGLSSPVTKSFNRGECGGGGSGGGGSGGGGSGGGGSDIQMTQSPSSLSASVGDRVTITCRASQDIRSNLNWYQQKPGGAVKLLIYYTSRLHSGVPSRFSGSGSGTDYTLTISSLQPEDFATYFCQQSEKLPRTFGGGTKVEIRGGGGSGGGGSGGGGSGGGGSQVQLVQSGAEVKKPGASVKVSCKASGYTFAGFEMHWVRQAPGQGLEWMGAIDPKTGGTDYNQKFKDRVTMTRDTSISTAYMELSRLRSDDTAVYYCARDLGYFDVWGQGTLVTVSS
notes: Anti-OX40/CD137: Ly598-derived heavy chain

binding result [2]: binds
EC50 (read off the curve) [3]: ~600 ng/mL
B5: Ly769 (bispecific antibody, human IgG1, kappa)
heavy: B4 heavy
light: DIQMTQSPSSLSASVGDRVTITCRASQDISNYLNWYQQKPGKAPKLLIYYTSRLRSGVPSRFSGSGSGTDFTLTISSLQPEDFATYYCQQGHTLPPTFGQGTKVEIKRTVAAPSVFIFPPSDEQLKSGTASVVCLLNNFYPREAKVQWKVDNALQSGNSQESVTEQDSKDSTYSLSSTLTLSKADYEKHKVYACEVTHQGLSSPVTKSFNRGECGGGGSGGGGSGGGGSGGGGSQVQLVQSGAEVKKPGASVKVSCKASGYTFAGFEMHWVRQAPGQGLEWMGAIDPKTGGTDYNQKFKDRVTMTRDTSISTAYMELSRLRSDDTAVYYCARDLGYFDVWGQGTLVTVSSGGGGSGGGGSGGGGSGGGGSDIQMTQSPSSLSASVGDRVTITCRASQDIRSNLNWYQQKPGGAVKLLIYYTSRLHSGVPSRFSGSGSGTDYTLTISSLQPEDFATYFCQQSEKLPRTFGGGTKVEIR
notes: as for B4

EC50 (read off the curve) [2]: ~400 ng/mL
EC50 (read off the curve) [3]: ~300 ng/mL
B6: Ly767 (bispecific antibody, human IgG1, kappa)
heavy: EVQLVQSGAEVKKPGASVKVSCKASGYTFTDSYMSWVRQAPGQGLEWIGDMYPDNGDSSYNQKFRERVTITRDTSTSTAYLELSSLRSEDTAVYYCVLAPRWYFSVWGQGTLVTVSSASTKGPSVFPLAPSSKSTSGGTAALGCLVKDYFPEPVTVSWNSGALTSGVHTFPAVLQSSGLYSLSSVVTVPSSSLGTQTYICNVNHKPSNTKVDKKVEPKSCDKTHTCPPCPAPELLGPSVFLFPPKPKDTLMISRTPEVTCVVVDVSHEDPEVKFNWYVDGVEVHNAKTKPREEQYNSTYRVVSVLTVLHQDWLNGKEYKCKVSNKALPAPIEKTISKAKGQPREPQVYTLPPSREEMTKNQVSLTCLVKGFYPSDIAVEWESNGQPENNYKTTPPVLDSDGSFFLYSKLTVDKSRWQQGNVFSCSVMHEALHNHYTQKSLSLSPGGGGGSGGGGSGGGGSGGGGSQVQLVQSGAEVKKPGASVKVSCKASGYTFAGFEMHWVRQAPGQGLEWMGAIDPKTGGTDYNQKFKDRVTMTRDTSISTAYMELSRLRSDDTAVYYCARDLGYFDVWGQGTLVTVSSGGGGSGGGGSGGGGSGGGGSDIQMTQSPSSLSASVGDRVTITCRASQDIRSNLNWYQQKPGGAVKLLIYYTSRLHSGVPSRFSGSGSGTDYTLTISSLQPEDFATYFCQQSEKLPRTFGGGTKVEIR
light: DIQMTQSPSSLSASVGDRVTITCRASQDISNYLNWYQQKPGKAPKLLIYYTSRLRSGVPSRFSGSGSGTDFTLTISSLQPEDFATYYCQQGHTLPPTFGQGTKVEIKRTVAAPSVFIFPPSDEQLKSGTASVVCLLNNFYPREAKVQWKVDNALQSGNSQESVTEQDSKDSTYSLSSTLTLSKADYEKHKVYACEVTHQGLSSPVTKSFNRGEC
notes: Anti-OX40/CD137: Ly598-derived heavy chain fused to Ly1630 scFv (VH-VL); Ly598 light chain

Further lines, the binder ahead of its results:

B1: Ly764 (bispecific antibody, human IgG1, kappa)
heavy: QVQLVQSGAEVKKPGASVKVSCKASGYTFAGFEMHWVRQAPGQGLEWMGAIDPKTGGTDYNQKFKDRVTMTRDTSISTAYMELSRLRSDDTAVYYCARDLGYFDVWGQGTLVTVSSASTKGPSVFPLAPSSKSTSGGTAALGCLVKDYFPEPVTVSWNSGALTSGVHTFPAVLQSSGLYSLSSVVTVPSSSLGTQTYICNVNHKPSNTKVDKKVEPKSCDKTHTCPPCPAPELLGPSVFLFPPKPKDTLMISRTPEVTCVVVDVSHEDPEVKFNWYVDGVEVHNAKTKPREEQYNSTYRVVSVLTVLHQDWLNGKEYKCKVSNKALPAPIEKTISKAKGQPREPQVYTLPPSREEMTKNQVSLTCLVKGFYPSDIAVEWESNGQPENNYKTTPPVLDSDGSFFLYSKLTVDKSRWQQGNVFSCSVMHEALHNHYTQKSLSLSPGK
light: DIQMTQSPSSLSASVGDRVTITCRASQDIRSNLNWYQQKPGGAVKLLIYYTSRLHSGVPSRFSGSGSGTDYTLTISSLQPEDFATYFCQQSEKLPRTFGGGTKVEIRRTVAAPSVFIFPPSDEQLKSGTASVVCLLNNFYPREAKVQWKVDNALQSGNSQESVTEQDSKDSTYSLSSTLTLSKADYEKHKVYACEVTHQGLSSPVTKSFNRGECGGGGSGGGGSGGGGSGGGGSDIQMTQSPSSLSASVGDRVTITCRASQDISNYLNWYQQKPGKAPKLLIYYTSRLRSGVPSRFSGSGSGTDFTLTISSLQPEDFATYYCQQGHTLPPTFGQGTKVEIKGGGGSGGGGSGGGGSGGGGSEVQLVQSGAEVKKPGASVKVSCKASGYTFTDSYMSWVRQAPGQGLEWIGDMYPDNGDSSYNQKFRERVTITRDTSTSTAYLELSSLRSEDTAVYYCVLAPRWYFSVWGQGTLVTVSS
notes: Anti-OX40/CD137: Ly1630 heavy chain
EC50 (read off the curve) [1]: ~200 ng/mL
EC50 (read off the curve) [2]: ~900 ng/mL

B2: Ly765 (bispecific antibody, human IgG1, kappa)
heavy: B1 heavy
light: DIQMTQSPSSLSASVGDRVTITCRASQDIRSNLNWYQQKPGGAVKLLIYYTSRLHSGVPSRFSGSGSGTDYTLTISSLQPEDFATYFCQQSEKLPRTFGGGTKVEIRRTVAAPSVFIFPPSDEQLKSGTASVVCLLNNFYPREAKVQWKVDNALQSGNSQESVTEQDSKDSTYSLSSTLTLSKADYEKHKVYACEVTHQGLSSPVTKSFNRGECGGGGSGGGGSGGGGSGGGGSEVQLVQSGAEVKKPGASVKVSCKASGYTFTDSYMSWVRQAPGQGLEWIGDMYPDNGDSSYNQKFRERVTITRDTSTSTAYLELSSLRSEDTAVYYCVLAPRWYFSVWGQGTLVTVSSGGGGSGGGGSGGGGSGGGGSDIQMTQSPSSLSASVGDRVTITCRASQDISNYLNWYQQKPGKAPKLLIYYTSRLRSGVPSRFSGSGSGTDFTLTISSLQPEDFATYYCQQGHTLPPTFGQGTKVEIK
notes: as for B1
EC50 (read off the curve) [1]: ~200 ng/mL
binding result [2]: binds

B7: Ly762 (bispecific antibody, human IgG1, kappa)
heavy: QVQLVQSGAEVKKPGASVKVSCKASGYTFAGFEMHWVRQAPGQGLEWMGAIDPKTGGTDYNQKFKDRVTMTRDTSISTAYMELSRLRSDDTAVYYCARDLGYFDVWGQGTLVTVSSASTKGPSVFPLAPSSKSTSGGTAALGCLVKDYFPEPVTVSWNSGALTSGVHTFPAVLQSSGLYSLSSVVTVPSSSLGTQTYICNVNHKPSNTKVDKKVEPKSCDKTHTCPPCPAPELLGPSVFLFPPKPKDTLMISRTPEVTCVVVDVSHEDPEVKFNWYVDGVEVHNAKTKPREEQYNSTYRVVSVLTVLHQDWLNGKEYKCKVSNKALPAPIEKTISKAKGQPREPQVYTLPPSREEMTKNQVSLTCLVKGFYPSDIAVEWESNGQPENNYKTTPPVLDSDGSFFLYSKLTVDKSRWQQGNVFSCSVMHEALHNHYTQKSLSLSPGGGGGSGGGGSGGGGSGGGGSDIQMTQSPSSLSASVGDRVTITCRASQDISNYLNWYQQKPGKAPKLLIYYTSRLRSGVPSRFSGSGSGTDFTLTISSLQPEDFATYYCQQGHTLPPTFGQGTKVEIKGGGGSGGGGSGGGGSGGGGSEVQLVQSGAEVKKPGASVKVSCKASGYTFTDSYMSWVRQAPGQGLEWIGDMYPDNGDSSYNQKFRERVTITRDTSTSTAYLELSSLRSEDTAVYYCVLAPRWYFSVWGQGTLVTVSS
light: DIQMTQSPSSLSASVGDRVTITCRASQDIRSNLNWYQQKPGGAVKLLIYYTSRLHSGVPSRFSGSGSGTDYTLTISSLQPEDFATYFCQQSEKLPRTFGGGTKVEIRRTVAAPSVFIFPPSDEQLKSGTASVVCLLNNFYPREAKVQWKVDNALQSGNSQESVTEQDSKDSTYSLSSTLTLSKADYEKHKVYACEVTHQGLSSPVTKSFNRGEC
notes: Ly1630 light chain
EC50 (read off the curve) [1]: ~100 ng/mL
binding result [2]: binds

B8: Ly763 (bispecific antibody, human IgG1, kappa)
heavy: QVQLVQSGAEVKKPGASVKVSCKASGYTFAGFEMHWVRQAPGQGLEWMGAIDPKTGGTDYNQKFKDRVTMTRDTSISTAYMELSRLRSDDTAVYYCARDLGYFDVWGQGTLVTVSSASTKGPSVFPLAPSSKSTSGGTAALGCLVKDYFPEPVTVSWNSGALTSGVHTFPAVLQSSGLYSLSSVVTVPSSSLGTQTYICNVNHKPSNTKVDKKVEPKSCDKTHTCPPCPAPELLGPSVFLFPPKPKDTLMISRTPEVTCVVVDVSHEDPEVKFNWYVDGVEVHNAKTKPREEQYNSTYRVVSVLTVLHQDWLNGKEYKCKVSNKALPAPIEKTISKAKGQPREPQVYTLPPSREEMTKNQVSLTCLVKGFYPSDIAVEWESNGQPENNYKTTPPVLDSDGSFFLYSKLTVDKSRWQQGNVFSCSVMHEALHNHYTQKSLSLSPGGGGGSGGGGSGGGGSGGGGSEVQLVQSGAEVKKPGASVKVSCKASGYTFTDSYMSWVRQAPGQGLEWIGDMYPDNGDSSYNQKFRERVTITRDTSTSTAYLELSSLRSEDTAVYYCVLAPRWYFSVWGQGTLVTVSSGGGGSGGGGSGGGGSGGGGSDIQMTQSPSSLSASVGDRVTITCRASQDISNYLNWYQQKPGKAPKLLIYYTSRLRSGVPSRFSGSGSGTDFTLTISSLQPEDFATYYCQQGHTLPPTFGQGTKVEIK
light: B7 light
notes: Ly1630 light chain
EC50 (read off the curve) [1]: ~100 ng/mL
binding result [2]: binds
